Here are results for twelve molecules from US7101851 (dated 2006).

Bridges are numbered along the chain shown (N, C = ends). Where no end group is shown, it is not given here.

The target in experiment [1] is T1, FcεRI-IgG (UniProt P12319 26-205).
T1 construct: extracellular domain; Produced from CHO cells (Genentech); also called FcεRI-Fc; bivalent fusion protein of the extracellular domain of FcεRI and the Fc domain of IgG; not shown: Fc domain of IgG
T1 sequence (looked up): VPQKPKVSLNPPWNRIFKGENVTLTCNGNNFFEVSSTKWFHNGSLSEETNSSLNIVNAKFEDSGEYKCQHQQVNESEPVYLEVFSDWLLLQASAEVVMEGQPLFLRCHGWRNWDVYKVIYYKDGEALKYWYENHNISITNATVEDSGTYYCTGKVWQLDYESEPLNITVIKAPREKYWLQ
In words: g3 phage ELISA on immobilized FcεRI-IgG.

For experiment [2], the target named is alpha subunit of the human FcεRI receptor expressed on cells (human) (UniProt P12319). The experiment is described as follows: IgE inhibition assay (Table 9).
The target in experiment [3] is T1, FcεRI-IgG. In words: competitive phage ELISA: g3 peptide-phage on immobilized FcεRI-IgG, soluble FcεRI-IgG titrated. As for the experimental part: (§1) This oligonucleotide was annealed with a g3 single stranded DNA phagemid template. The mutagenesis reaction was transformed into XL-1 Blue *E. coli* and plated on LB-carb+ agar plates. Individual colonies were propagated in 5 mL of 2YT broth, tetracycline, carbenicillin and VCSM13 helper phage (Stratagene). Single stranded DNA was isolated from the purified phage particles and sequenced to confirm the insertion of the phage peptide sequence. 25 mL preparations of g3 phage clones were propagated overnight and purified by PEG precipitation. After resuspension of the phage pellet in 1.0 mL of PBS, it was serially diluted 1/3 and incubated with immobilized FcεRI-IgG 2 ug/mL in a 96 well Maxisorp microtiter plate for 1 hour at room temperature. The wells were washed 10× with PBST then incubated with 100 uL of anti M13 phage HRP as described above. An OD(492) value corresponding to less than 50% binding was selected and the purified phage clones were diluted to yield this normalized level of signal. […] The mixture was then transferred to 96 well microtiter dishes containing immobilized FcεRI-IgG. After a 1-hour incubation period, the plates were washed 10 times, incubated with anti M13-HRP conjugated antibody and developed with OPD as described above.
(§2) In addition, stepwise N-terminal and C-terminal truncations of the peptide sequence were constructed. All constructs were made by designing oligonucleotides corresponding to the desired substitution or truncation, with an additional 18 bp of DNA overlapping the peptide or g3 phage DNA sequence. The phage clones were propagated overnight following infection in XL-1 Blue *E. coli*. Purified phage preparations were titered and assayed for binding to immobilized receptor. FcεRI-IgG competition assays were performed as described above.

For experiment [4], the target named is T1, FcεRI-IgG. In words: competitive phage ELISA; relative to g3c.42. As for the experimental part:
as §1, §2

The target of experiment [5] is T2, alpha subunit of the human FcεRI receptor expressed on cells (human, UniProt P12319 26-257).
T2 sequence (looked up): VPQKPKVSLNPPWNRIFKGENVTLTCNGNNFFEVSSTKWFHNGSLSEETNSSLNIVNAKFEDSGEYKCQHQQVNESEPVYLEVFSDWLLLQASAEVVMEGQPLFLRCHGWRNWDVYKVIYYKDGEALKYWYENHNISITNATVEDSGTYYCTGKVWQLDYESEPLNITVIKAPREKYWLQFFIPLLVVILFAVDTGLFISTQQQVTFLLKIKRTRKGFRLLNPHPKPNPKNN
In words: cell-based or functional assay.

Experiment [6] concerns the target T2, alpha subunit of the human FcεRI …. The experiment is described as follows: inhibition of 125I-IgE binding to CHO cells expressing human FcεRI alpha. As for the experimental part: To determine the ability of peptides to inhibit IgE binding to FcεRI, a cell-based binding assay was used with radiolabeled IgE. Chinese hamster ovary cells expressing the alpha subunit of the human FcεRI receptor were cultured overnight in Falcon 96 well microtiter plates at a concentration of 5 ×10^4 cells per well. The following day the cells were rinsed three times with PBS and then once with F12/DMEM. Peptide stocks were reconstituted in 100 mM Hepes buffered water, pH 7.2, at a concentration of 5 mg/mL. Working concentrations of the peptide were diluted in assay buffer (see below). 75 uL of a desired concentration of peptide was added to the top row of a separate 96 well microtiter plate and serially diluted 1:3 in 50 uL of the assay buffer (F12/DMEM, 1% BSA, 0.05% NaN_3 and 0.025 mM Hepes pH 7.2). Starting concentrations ranged from 50–500 uM. Next, 50 uL of the diluted peptide was transferred to the 96 microtiter well plate containing a monolayer of CHO FcεRI+ cells. […] Cells were
Alanine substitutions in IGE063 (SEQ ID NO:49) were used to assess sidechain contributions. The P9A (IGE070, SEQ ID NO:52) substitution had the largest impact with a >500× reduction in binding. […] Clearly the alanine substitutions at G8, P9, W10, G11 and W12 all had major impacts on binding FcεRI.

The target of experiment [7] is T3, extracellular domain of the alpha subunit of the human FcεRI (aa 1-176), produced in baculovirus infected … (human, UniProt P12319 26-201, N-linked carbohydrate (NAG on Asn21 seen in the crystal); derivatised with PDEA for thiol coupling to the chip in the biosensor assay).
T3 construct: range 1-176; Residues 1-176 are probably counted without the signal peptide; also called FcεRIα; soluble FcεRI
T3 sequence (looked up): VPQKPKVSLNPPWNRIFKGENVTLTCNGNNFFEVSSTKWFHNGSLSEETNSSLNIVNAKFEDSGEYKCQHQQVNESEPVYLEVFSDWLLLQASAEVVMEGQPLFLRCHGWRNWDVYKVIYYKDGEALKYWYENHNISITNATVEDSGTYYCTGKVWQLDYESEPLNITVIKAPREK
The experiment is described as follows: SPR biosensor (BIAcore), peptide over immobilized FcεRIα; Kd (apparent) calculated from kon and koff. As for the experimental part: *peptide is a dimer. SEQ ID NO: describes each monomer of the dimer. "ava" = amino-valeric acid Several peptides were also tested in a direct-binding assay using a surface plasmon resonance biosensor (Lofas & Johnsson, *J. Chem. Soc. Commun.* 21, 1526–1528 (1990)). FcεRIα, produced in baculovirus infected insect cells, was immobilized by the surface thiol method (BIAcore Methods Manual Supplement 5a, BIAcore, Inc., Piscataway, N.J.). Briefly, receptor was reacted with 2-(2-pyridinyldithio)ethaneamine hydrochloride (PDEA; Natake & Swaisgood, *J. Biochem.* 74, 77–86 (1973)), desalted into 10 mM sodium acetate (pH 4.8) and stored in aliquots at −80° C. Thawed PDEA-receptor was injected over carboxymethyl-dextran (B1 or CM5, BIAcore, Inc.) biosensor chips preactivated with N-ethyl-N'-(3-dimethylaminopropyl)-carbodiimide hydrochloride (EDC) and N-hydroxysuccinimide (NHS), cystamine, and DTT. […] Serial dilutions of peptide in running buffer (phosphate-buffered saline containing 0.05% Tween-20, 0.01% sodium azide) were injected over the immobilized receptor, and the net amount of peptide bound at steady-state was measured as the net change in response (RU) at a point just prior to termination of peptide injection, compared to a running-buffer baseline. […] In the case of IGE134 (SEQ ID NOS:), the value shown indicates the Kd calculated from the rate constants, $kon$ and $koff$. […]

In experiment [8] the target is T4, extracellular domain of the alpha subunit of the human FcεRI (aa 1-176), baculovirus-derived (human, UniProt P12319 26-201).
T4 construct: range 1-176; also called soluble FcεRI; baculovirus-derived FcεRI
T4 sequence (looked up): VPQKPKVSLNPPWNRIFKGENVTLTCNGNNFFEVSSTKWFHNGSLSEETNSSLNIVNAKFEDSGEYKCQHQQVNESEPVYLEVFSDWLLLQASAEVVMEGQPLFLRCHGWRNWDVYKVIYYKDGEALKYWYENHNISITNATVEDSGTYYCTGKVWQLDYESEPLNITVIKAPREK
The experiment is described as follows: competitive phage ELISA: peptide-phage with soluble FcεRI on FcεRI-coated plate. As for the experimental part: Phage ELISA assays were carried out as described (Lowman, 1998, supra), using Nunc Maxisorp™ plates coated with a 2 μg/mL solution of baculovirus-derived FcεRI. Peptide-phage were pre-incubated for 5–10 min with serial dilutions of receptor, then added to the receptor-coated plate. After incubation for 1 h at room temperature, the plates were washed and an anti-phage HRP-conjugated antibody (Pharmacia) was added. After further incubation for 20 min, plates were again washed and developed using the substrate OPD (Sigma). Optical density at 492 nm was read and plotted as a function of FcεRI concentration to determine an $IC50$ of inhibition by each peptide-phage variant.

B1: g3c.21 peptide-phage (peptide)
peptide: CTEGPWGWVCMAAD
modifications: not fully specified; cysteine pairing not given here
notes: Monovalent g3p phage display; not shown: fused to M13 gene-3 protein (g3p) on phage
As to B1, the binding result in the experiment with FcεRI-IgG [1] is recorded as “no binding”.

B2: IGE143 (peptide)
peptide: VQCPHFCYVGGHALCADVCYVGR
modifications: disulfide (positions not given here); also: two intramolecular disulfide bonds, pairing not given here
Regarding B2, in experiment [2], the fold loss in activity against its control peptide was more than 100 fold.

B3: g3c.1 peptide-phage (peptide)
peptide: LPRCTEGPWGWVCMAAD
modifications: not fully specified; cysteine pairing not given here
notes: as for B1
Turning to B3, the concentration for half-maximal inhibition (IC50) with FcεRI-IgG [3] was 3 nM. In addition, in the experiment with FcεRI-IgG [4], the “Relative (IC50) (fold weaker)” value amounted to 1 fold.

B4: g3c.29 peptide-phage (peptide)
peptide: NLPRCTEGPWGWVCMAA
modifications: not fully specified (bridges); cysteine pairing not given here
notes: as for B1
In the experiment with FcεRI-IgG [3], B4 showed a 50% inhibitory concentration (IC50) of 5 nM. The “Relative (IC50) (fold weaker)” value in the experiment with FcεRI-IgG [4] is 1 fold.

B5: g3c.34 peptide-phage (peptide)
peptide: NLPRCTEGPWGWVCM
modifications: not fully specified; cysteine pairing not given here
notes: not shown: fused to M13 gene-3 protein (g3p) on phage
The molecule B5 showed an IC50 in the experiment with FcεRI-IgG [3] of 14.6 nM. The “Relative (IC50) (fold weaker)” value with FcεRI-IgG [4] amounted to 3 fold.

B6: IGE089 (peptide)
peptide: ALCPAVCYV-NH2
modifications: also: antiparallel disulfide-linked homodimer, interchain C3-C7' and C7-C3'
Turning to B6, the “IC50 of inhibition of ragweed induced histamine release (RBL-48 cells, 0.1 nM ragweed specific human IgE)” value in experiment [5] is 8000 nM.

B7: synthetic peptide NLPRCTEGPWGWVCMAAD (SEQ ID NO:18) (peptide)
peptide: NLPRCTEGPWGWVCMAAD
modifications: disulfide 5-14 (inferred)
notes: also called optimized peptide
For B7, in experiment [6], the concentration for half-maximal inhibition (IC50) is 1000 nM, the “fold improvement over the … (SEQ ID NO:1) peptide” value was more than 160 fold and the “fold improvement over the … (SEQ ID NO:8) peptide” value worked out at 40 fold. For the same molecule, the “IC50 of inhibition of ragweed induced histamine release (RBL-48 cells, ragweed specific IgE)” value in experiment [5] came to 10000 nM.

B8: g3c.17 peptide-phage (peptide)
peptide: RCTEGPWGWVCMAAD
modifications: not fully specified; cysteine pairing not given here
notes: as for B1
Take B8: the binding result with FcεRI-IgG [1] is on record as “no binding”.

B9: peptide NLPRCTEGPWGWVCM (SEQ ID NO:27) (peptide)
peptide: NLPRCTEGPWGWVCM
modifications: disulfide 5-14 (inferred)
For the molecule B9, in experiment [5], the “IC50 of inhibition of ragweed induced histamine release (RBL-48 cells, ragweed specific IgE)” value came to 13000 nM.

B10: IGE134 (peptide)
peptide: VQCPHFCYELDYELCPDVCYV-NH2
modifications: disulfide 7-15, 3-19
notes: also called peptide
As for B10, the Kd in experiment [7] was 32 nM.

B11: IGE120-phage (IVCPRLCYVGGKALCPDVCYV displayed as a fusion to g3p of bacteriophage M13) (peptide)
peptide: IVCPRLCYVGGKALCPDVCYVGGGSGGGGSGSGDY
notes: not shown: g3p of bacteriophage M13, continuing after residue 257 of the mature protein
In the case of B11, the “Relative IC50” value in experiment [8] is 1 fold, relative to IGE120-phage.

B12: g3c.31 peptide-phage (peptide)
peptide: NLPRCTEGPWGWVCMA
modifications: not fully specified (bridges); cysteine pairing not given here
notes: as for B1
As to B12, in the experiment with FcεRI-IgG [3], the IC50 was determined as 6.1 nM. Also, the “Relative (IC50) (fold weaker)” value with FcεRI-IgG [4] came out at 1 fold.
